In PMC314469, “Protein Interaction Networks by Proteome Peptide Scanning” (PLoS Biology, 2004):

T1: Abp1 SH3 (ABP1_YEAST), P15891
T1 chain: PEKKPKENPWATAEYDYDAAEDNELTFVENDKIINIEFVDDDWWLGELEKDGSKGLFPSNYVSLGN


Target: T1, Abp1 SH3 (ABP1_YEAST), P15891
Assay: SPOT array

normalised SPOT signal, Boehringer light units (BLU); mean over the file's lines of this peptide | Binder
194 | KKHNSWVPKWLKP [YFL034W 914-926]
90.9 | ISPVIIPLGNPKRP [YGR177C 149-162]
75.1 | KDIPVKSDDTPAKP [YGL009C 527-540]
209 | KAGGPRAPQGPRP [YJL008C 549-561]
71.8 | KDSPSFLPGQQRP [YNL167C 92-104]
125 | KHSTDEKPNFTKP [YLR087C 2329-2341]
332 | KGMENELPFMKRP [YIL077C 15-27]
118 | KDDKAMEPPNEKP [YDL193W 7-19]
273 | KGVRNIMIPFPNRP [YOR093C 1313-1326]
109 | KKEYSETFYHPYKP [YPL008W 3-16]
13.7 | KSEPELYPNGIKP [YBR058C 403-415]
80 | KKIEAKKATRPSKP [YNL173C 323-336]
13.3 | KHKQHKPKVKPSKP [YHL007C 233-246]
118 | IYLTKLFMEWPFKP [YMR228W 312-325]
1320 | KDPKSFPPPPLKP [YBR108W 81-93]
898 | KGIIMDAKFHPFKP [YMR049C 639-652]
71.3 | KFSSDNDPLQYRP [YBR033W 108-120]
257 | KILDLKFPPKERP [YKL211C 326-338]
116 | KELSRLTYYGPEKP [YLR305C 1008-1021]
54 | KEYTRFNQIFPKKP [YDR182W 159-172]
166 | KIQELYLPHMSRP [YMR131C 92-104]

normalised SPOT signal, Boehringer light units (BLU); mean over the file's lines of this peptide | Binder
43.2 | ITKILRIIGFPSRP [YNL247W 569-582]
97.5 | KIEGSIPENEPSKP [YHR102W 306-319]
91.3 | ISNLGGKSIDPHKP [YNL212W 461-474]
378 | KELKWADPRSFKP [YOR168W 156-168]
166 | KGFRFNLPPTDRP [YGR202C 91-103]
80.4 | IYDVIEVVPEPGKP [YDR301W 1056-1069]
63.6 | KEKKVTFDIEPYKP [YBR143C 103-116]
2680 | KFMSAIKPANQKP [YAL024C 394-406]
120 | KKIKKKSPTGMKP [YOL075C 641-653]
90.7 | ITSYAVSPYAQKP [YJL166W 24-36]
172 | ISRWVNFPWDAKP [YIL085C 295-307]
94.1 | KETVTKQPTEEKP [YNL110C 11-23]
2320 | KDVQPFIPKSLRP [YGR175C 289-301]
174 | KARHVLYPKGVKP [YDR463W 278-290]
114 | KGPDVEFLMIPFRP [YOR188W 88-101]
112 | KDPANISMILPSKP [YBR260C 525-538]
121 | KHAAKIDLVEPVKP [YBR261C 84-97]
40.5 | KIGLIQFQISPPKP [YDL143W 233-246]
87 | IVFKNVSFTYPTRP [YLR188W 432-445]
149 | ITELISGYMLPLRP [YJL212C 542-555]
211 | KAEMKAGTTAPPKP [YLR234W 517-530]
